According to patent US20080220446A1 (published 2008):
Values belong to the binder of their own block, whether it stands above or below them.

How the values were obtained:
[1] = target: T1, tissue-type plasminogen activator (tPA) (human, UniProt P00750 36-562); assay: ELISA, therapeutic coated on Nunc Immobilizer plate, concentration series of tPA, one-site binding fit
T1 construct: Full-length commercial tPA; also called Actilyse; Alteplase
Method: Plates were washed twice with Tris buffered saline pH 7.2 containing 0.1% Tween20 (TBST) and blocked with PBS containing 1% Tween20 for 1 hour at room temperature. […] Plates were washed five times with TBST and incubated with peroxidase labeled anti-mouse immunoglobulins (RAMPO; DAKOCytomation, Glostrup, Denmark) diluted 1:3000 in PBST for 30 minutes at room temperature. Plates were washed five times with PBS 0.1% Tween20, and stained with 100 μL/well of tetramethyl-benzidine (TMB) substrate (Biosource Europe, Nivelles, Belgium). The reaction was terminated with 50 μL/well of 2 M H₂SO₄ and substrate conversion was read at 450 nm on a Spectramax340 microplate reader. Curves were fitted with a one-site binding model (GraphPad Prism version 4.02 for Windows, Graphpad Software, Calif., USA) from which Kd and Bmax were determined.

[2] = target: T1, tissue-type plasminogen activator (tPA); assay: ELISA, tPA coated, concentration series of recombinant β2GPI
Method: (§1) Binding of β₂GPI was assessed with monoclonal antibody 2B2²².
(§2) The positive control was amyloid fibrin peptide FP13. […] C. […] Eluted fractions are analyzed on Western blot after SDS-PA electrophoresis. […] Signals are corrected for background fluorescence of CL, DXS, ThT and buffer.

[3] = target: T2, factor XII (purified human factor XII from plasma) (human, UniProt P00748 20-615); assay: ELISA, factor XII immobilized, concentration series of recombinant β2GPI
T2 construct: also called FXII
T2 sequence (looked up): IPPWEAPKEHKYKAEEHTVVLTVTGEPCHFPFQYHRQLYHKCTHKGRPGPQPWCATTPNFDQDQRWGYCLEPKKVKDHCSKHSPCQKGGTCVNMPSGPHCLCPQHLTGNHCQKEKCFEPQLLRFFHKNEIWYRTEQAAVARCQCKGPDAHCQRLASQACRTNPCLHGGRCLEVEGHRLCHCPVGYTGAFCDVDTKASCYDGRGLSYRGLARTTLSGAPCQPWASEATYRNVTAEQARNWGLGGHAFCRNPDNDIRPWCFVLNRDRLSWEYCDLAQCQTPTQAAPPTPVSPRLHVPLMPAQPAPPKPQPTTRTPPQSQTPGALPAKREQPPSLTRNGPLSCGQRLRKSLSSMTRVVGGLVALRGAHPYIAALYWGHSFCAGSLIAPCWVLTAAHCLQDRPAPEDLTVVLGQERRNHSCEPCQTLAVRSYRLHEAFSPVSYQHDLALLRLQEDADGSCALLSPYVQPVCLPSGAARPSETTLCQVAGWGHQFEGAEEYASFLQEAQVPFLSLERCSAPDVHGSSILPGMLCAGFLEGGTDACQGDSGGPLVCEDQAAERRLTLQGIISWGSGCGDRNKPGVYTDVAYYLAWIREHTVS
Method: as §1, §2

[4] = target: T2, factor XII (purified human factor XII …); assay: ELISA, factor XII coated, concentration series of recombinant β2GPI
[5] = target: T1, tissue-type plasminogen activator (tPA); assay: ELISA, tPA immobilized, concentration series of recombinant β2GPI
Method: as §1, §2

T1 sequence (P00750 36-562 limits assumed): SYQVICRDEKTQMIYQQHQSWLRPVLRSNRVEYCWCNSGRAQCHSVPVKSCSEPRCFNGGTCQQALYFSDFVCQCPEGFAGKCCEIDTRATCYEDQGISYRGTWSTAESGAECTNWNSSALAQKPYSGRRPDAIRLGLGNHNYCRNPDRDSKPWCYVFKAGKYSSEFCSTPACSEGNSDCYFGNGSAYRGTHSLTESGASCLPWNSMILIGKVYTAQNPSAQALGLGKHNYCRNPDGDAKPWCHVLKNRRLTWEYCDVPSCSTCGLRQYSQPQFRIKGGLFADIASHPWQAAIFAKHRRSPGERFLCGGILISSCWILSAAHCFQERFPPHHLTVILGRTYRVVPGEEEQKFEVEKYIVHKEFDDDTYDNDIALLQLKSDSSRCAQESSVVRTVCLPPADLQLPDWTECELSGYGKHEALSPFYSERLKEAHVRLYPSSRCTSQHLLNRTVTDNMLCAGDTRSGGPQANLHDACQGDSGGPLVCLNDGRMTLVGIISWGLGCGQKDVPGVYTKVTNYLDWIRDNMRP

- Kd [1]: 216 nM
B1: abciximab (ReoPro) (Fab, V domains shown)
VH: EVQLQQSGTVLARPGASVKMSCEASGYTFTNYWMHWVKQRPGQGLEWIGAIYPGNSDTSYIQKFKGKAKLTAVTSTTSVYMELSSLTNEDSAVYYCTLYDGYYVFAYWGQGTLVTVSA
VL: EIVLTQSPVTLSVTPGDSVSLSCRASRDISNNLHWFQQTSHESPRLLIKYASQSMSGIPSRFSGSGSGTDFTLSINSVETEDFGMYFCQQTNSWPYTFGGGTKLEIK

- Kd [2]: 51 nM
- Kd [3]: 0.9 µg/mL
- Kd [4]: 20 nM
- Kd [5]: 2.3 µg/mL
B2: recombinant human β2-glycoprotein I (insect cells) (other, UniProt P02749 20-345, looked up)
chain: GRTCPKPDDLPFSTVVPLKTFYEPGEEITYSCKPGYVSRGGMRKFICPLTGLWPINTLKCTPRVCPFAGILENGAVRYTTFEYPNTISFSCNTGFYLNGADSAKCTEEGKWSPELPVCAPIICPPPSIPTFATLRVYKPSAGNNSLYRDTAVFECLPQHAMFGNDTITCTTHGNWTKLPECREVKCPFPSRPDNGFVNYPAKPTLYYKDKATFGCHDGYSLDGPEEIECTKLGNWSAMPSCKASCKVPVKKATVVYQGERVKIQEKFKNGMLHGDKVSFFCKNKEKKCSYTEDAQCIDGTIEVPKCFKEHSSLAFWKTDASDVKPC
notes: also called recombinant β2GPI; rβ2GPI

- Kd [1]: 230 nM
B3: human coagulation factor VIII (FVIII) (Aafact) (other)
chain 1: ATRRYYLGAVELSWDYMQSDLGELPVDARFPPRVPKSFPFNTSVVYKKTLFVEFTDHLFNIAKPRPPWMGLLGPTIQAEVYDTVVITLKNMASHPVSLHAVGVSYWKASEGAEYDDQTSQREKEDDKVFPGGSHTYVWQVLKENGPMASDPLCLTYSYLSHVDLVKDLNSGLIGALLVCREGSLAKEKTQTLHKFILLFAVFDEGKSWHSETKNSLMQDRDAASARAWPKMHTVNGYVNRSLPGLIGCHRKSVYWHVIGMGTTPEVHSIFLEGHTFLVRNHRQASLEISPITFLTAQTLLMDLGQFLLFCHISSHQHDGMEAYVKVDSCPEEPQLRMKNNEEAEDYDDDLTDSEMDVVRFDDDNSPSFIQIRSVAKKHPKTWVHYIAAEEEDWDYAPLVLAPDDRSYKSQYLNNGPQRIGRKYKKVRFMAYTDETFKTREAIQHESGILGPLLYGEVGDTLLIIFKNQASRPYNIYPHGITDVRPLYSRRLPKGVKHLKDFPILPGEIFKYKWTVTVEDGPTKSDPRCLTRYYSSFVNMERDLASGLIGPLLICYKESVDQRGNQIMSDKRNVILFSVFDENRSWYLTENIQRFLPNPAGVQLEDPEFQASNIMHSINGYVFDSLQLSVCLHEVAYWYILSIGAQTDFLSVFFSGYTFKHKMVYEDTLTLFPFSGETVFMSMENPGLWILGCHNSDFRNRGMTALLKVSSCDKNTGDYYEDSYEDISAYLLSKNNAIEPRSFSQNSRHPSTRQKQFNATTIPENDIEKTDPWFAHRTPMPKIQNVSSSDLLMLLRQSPTPHGLSLSDLQEAKYETFSDDPSPGAIDSNNSLSEMTHFRPQLHHSGDMVFTPESGLQLRLNEKLGTTAATELKKLDFKVSSTSNNLISTIPSDNLAAGTDNTSSLGPPSMPVHYDSQLDTTLFGKKSSPLTESGGPLSLSEENNDSKLLESGLMNSQESSWGKNVSSTESGRLFKGKRAHGPALLTKDNALFKVSISLLKTNKTSNNSATNRKTHIDGPSLLIENSPSVWQNILESDTEFKKVTPLIHDRMLMDKNATALRLNHMSNKTTSSKNMEMVQQKKEGPIPPDAQNPDMSFFKMLFLPESARWIQRTHGKNSLNSGQGPSPKQLVSLGPEKSVEGQNFLSEKNKVVVGKGEFTKDVGLKEMVFPSSRNLFLTNLDNLHENNTHNQEKKIQEEIEKKETLIQENVVLPQIHTVTGTKNFMKNLFLLSTRQNVEGSYDGAYAPVLQDFRSLNDSTNRTKKHTAHFSKKGEEENLEGLGNQTKQIVEKYACTTRISPNTSQQNFVTQRSKR
chain 2: EITRTTLQSDQEEIDYDDTISVEMKKEDFDIYDEDENQSPRSFQKKTRHYFIAAVERLWDYGMSSSPHVLRNRAQSGSVPQFKKVVFQEFTDGSFTQPLYRGELNEHLGLLGPYIRAEVEDNIMVTFRNQASRPYSFYSSLISYEEDQRQGAEPRKNFVKPNETKTYFWKVQHHMAPTKDEFDCKAWAYFSDVDLEKDVHSGLIGPLLVCHTNTLNPAHGRQVTVQEFALFFTIFDETKSWYFTENMERNCRAPCNIQMEDPTFKENYRFHAINGYIMDTLPGLVMAQDQRIRWYLLSMGSNENIHSIHFSGHVFTVRKKEEYKMALYNLYPGVFETVEMLPSKAGIWRVECLIGEHLHAGMSTLFLVYSNKCQTPLGMASGHIRDFQITASGQYGQWAPKLARLHYSGSINAWSTKEPFSWIKVDLLAPMIIHGIKTQGARQKFSSLYISQFIIMYSLDGKKWQTYRGNSTGTLMVFFGNVDSSGIKHNIFNPPIIARYIRLHPTHYSIRSTLRMELMGCDLNSCSMPLGMESKAISDAQITASSYFTNMFATWSPSKARLHLQGRSNAWRPQVNNPKEWLQVDFQKTMKVTGVTTQGVKSLLTSMYVKEFLISSSQDGHQWTLFFQNGKVKVFQGNQDSFTPVVNSLDPPLLTRYLRIHPQSWVHQIALRMEVLGCEAQDLY
